Results on 18 molecules are retold here after US20250186614A1, “COMPACT DRUG RESPONSIVE DOMAINS FOR REGULATION OF FUNCTION/ABUNDANCE AND DELIVERY OF POLYPEPTIDE PAYLOADS” (OBSIDIAN THERAPEUTICS, INC., priority 2022, published 2025).

Where a chain is given by its changes, count along the chain named. In names and notes the source's numbering stands.

The labels stand for the following.
B1: FKBP-239 (protein)
chain: HCPIKSRKGDVLHMHYTGKLYDGTEFDSSLPRNQPFVFSLGTGEVIKGWDQGLLGMCEGEKRKLVIPSELGYGERGWPPKIPGGATLVFEVELLKIER
modifications: Description of sequence: Construct Name: FKBP-239; Mutation(s): Q72R Q84E A117W DRD E61Y
B2: FKBP-250 (protein)
chain: B1 chain with Y21E, E90F
modifications: Description of sequence: Construct Name: FKBP-250; Mutation(s): Q72R Q84E A117W DRD E130F
B3: FKBP-249 (protein)
chain: B1 chain with Y21E, S28D, V45R
modifications: Description of sequence: Construct Name: FKBP-249; Mutation(s): Q72R Q84E A117W V85R DRD S68D
B4: FKBP-248 (protein)
chain: B1 chain with Y21E, S28D
modifications: Description of sequence: Construct Name: FKBP-248; Mutation(s): Q72R Q84E A117W DRD S68D
B5: FKBP-255: FKBP13 DRD-AcGFP construct of Table 10 (protein)
chain: B1 chain with Y21E, V45R, G59R
modifications: Description of sequence: Construct Name: FKBP-255; Mutation(s): Q72R Q84E A117W V85R DRD G99R
B6: FKBP-247 (protein)
chain: B1 chain with M14A, Y21E, S29H, V45R
modifications: Description of sequence: Construct Name: FKBP-247; Mutation(s): Q72R Q84E A117W V85R DRD S69H M54A
B7: FKBP-240: FKBP13 DRD-AcGFP construct of Table 10 (protein)
chain: B1 chain with V45R
modifications: Description of sequence: Construct Name: FKBP-240; Mutation(s): Q72R Q84E A117W V85R DRD E61Y
B8: FKBP-241 (protein)
chain: B1 chain with M14A, V45R
modifications: Description of sequence: Construct Name: FKBP-241; Mutation(s): Q72R Q84E A117W V85R DRD E61Y M54A
B9: FKBP-246 (protein)
chain: B1 chain with Y21E, S29H, V45R
modifications: Description of sequence: Construct Name: FKBP-246; Mutation(s): Q72R Q84E A117W V85R DRD S69H
B10: FKBP-244: FKBP13 DRD-AcGFP construct of Table 10 (protein)
chain: B1 chain with M14A, Y21E, V45R, P78S
modifications: Description of sequence: Construct Name: FKBP-244; Mutation(s): Q72R Q84E A117W V85R DRD P118S M54A
B11: FKBP-242 (protein)
chain: B1 chain with Y21E, P78S
modifications: Description of sequence: Construct Name: FKBP-242; Mutation(s): Q72R Q84E A117W DRD P118S
B12: FKBP-243: FKBP13 DRD-AcGFP construct of Table 10 (protein)
chain: B1 chain with Y21E, V45R, P78S
modifications: Description of sequence: Construct Name: FKBP-243; Mutation(s): Q72R Q84E A117W V85R DRD P118S
B13: FKBP-245 (protein)
chain: B1 chain with Y21E, S29H
modifications: Description of sequence: Construct Name: FKBP-245; Mutation(s): Q72R Q84E A117W DRD S69H
B14: FKBP-254 (protein)
chain: B1 chain with Y21E, G59R
modifications: Description of sequence: Construct Name: FKBP-254; Mutation(s): Q72R Q84E A117W DRD G99R
B15: FKBP-253 (protein)
chain: B1 chain with Y21E, V45R, I96P
modifications: Description of sequence: Construct Name: FKBP-253; Mutation(s): Q72R Q84E A117W V85R DRD I136P
B16: FKBP-252 (protein)
chain: B1 chain with Y21E, I96P
modifications: Description of sequence: Construct Name: FKBP-252; Mutation(s): Q72R Q84E A117W DRD I136P
B17: FKBP-174 (protein)
chain: B1 chain with S6G, M14A, Y21E, V91G
modifications: Description of sequence: Construct Name: FKBP-174; Mutation(s): Q72R Q84E A117W DRD M54A S36G V131G
B18: FKBP-173 (protein)
chain: B1 chain with M14A, Y21E, L93G
modifications: Description of sequence: Construct Name: FKBP-173; Mutation(s): Q72R Q84E A117W DRD M54A L133G

The term EC90 denotes the concentration at which the effect reaches the 90% level.

A short description of one test: Example 4: dose response of FKBP constructs 160-255, Ec50, Ec90 and fold change (raw and normalized to mCherry). The settings on record: FKBP constructs 160-255; not normalized; read-out: EC90. It counts as cell-based. As to the method: Additional experiments were performed for constructs FKBP-160-292.
Consider B1, for which the EC90 came to 223 nM.
The same measure, in the same setting: the result for B2 reads 101 nM; that for B3, 472 nM.
With B4, the EC90 stood at 1800 nM.
The same measure, in the same setting: the result for B5 reads 101 nM; that for B6, 2810 nM; that for B7, 111 nM.
On to B8, for which the EC90 amounted to 221 nM.
Still for that read-out and setting: with B9 the figure was 1530 nM; with B10, 307 nM; with B11, 466 nM.
On the same count and under the same terms, the result for B12 reads 125 nM; that for B13, 5830 nM; that for B14, 369 nM.

The test is the same for the next values; noted with them: fold change during initial analysis.
With B1, the “FC (fold change)” value is listed as 31.1.
For the molecule B2, the “FC (fold change)” value is listed as 22.0.
The same measure, in the same setting: the result for B15 reads 2.3; that for B3, 33.7.
For the molecule B4, the “FC (fold change)” value stood at 50.1.
In the case of B5, the “FC (fold change)” value is given as 33.0.
Consider B6, for which the “FC (fold change)” value amounted to 35.0.
As for B7, the “FC (fold change)” value is 43.7.
As for B8, the “FC (fold change)” value was 43.9.
The same measure, in the same setting: the result for B9 reads 30.4.
Same read-out and setting: the result for B16 reads 1.3; that for B10, 51.2; that for B11, 24.4.
In the case of B12, the “FC (fold change)” value came out at 37.1.
On to B17, for which the “FC (fold change)” value is reported as 0.9.
For B13, the “FC (fold change)” value was 40.6.
In the case of B18, the “FC (fold change)” value is reported as 4.
For B14, the “FC (fold change)” value was determined as 35.6.

Still in this test, the particulars now being: normalized to mCherry; read-out: EC90 (Norm).
Regarding B1, the EC90 was determined as 243 nM.
On the same count and under the same terms, with B2 the figure was 114 nM.
B3: the EC90 worked out at 494 nM.
With B4, the EC90 is 1880 nM.
Regarding B5, the EC90 turned out to be 101 nM.
As for B6, the EC90 worked out at 2950 nM.
Still for that read-out and setting: with B7 the figure was 111 nM; with B8, 222 nM; with B9, 1520 nM.
Turning to B10, the EC90 was 328 nM.
On the same count and under the same terms, with B11 the figure was 539 nM; with B12, 127 nM; with B13, 5870 nM.
Same read-out and setting: with B14 the figure was 373 nM.
